Earlier results on two substances are cited in paper PMC4496705.

pKd: −log10 of the molar value.

The target in series [1] is hPrp4 peptide (Homo sapiens) (UniProt O43172). Description: ITC.
The target in series [2] is SKIP (Homo sapiens) (UniProt Q13573). The experiment in a line: SPR. On the technique in general: SPR reads the build-up and loss of mass on a sensor chip optically.
UniProt Q13573, sequence (Q13573 2-536): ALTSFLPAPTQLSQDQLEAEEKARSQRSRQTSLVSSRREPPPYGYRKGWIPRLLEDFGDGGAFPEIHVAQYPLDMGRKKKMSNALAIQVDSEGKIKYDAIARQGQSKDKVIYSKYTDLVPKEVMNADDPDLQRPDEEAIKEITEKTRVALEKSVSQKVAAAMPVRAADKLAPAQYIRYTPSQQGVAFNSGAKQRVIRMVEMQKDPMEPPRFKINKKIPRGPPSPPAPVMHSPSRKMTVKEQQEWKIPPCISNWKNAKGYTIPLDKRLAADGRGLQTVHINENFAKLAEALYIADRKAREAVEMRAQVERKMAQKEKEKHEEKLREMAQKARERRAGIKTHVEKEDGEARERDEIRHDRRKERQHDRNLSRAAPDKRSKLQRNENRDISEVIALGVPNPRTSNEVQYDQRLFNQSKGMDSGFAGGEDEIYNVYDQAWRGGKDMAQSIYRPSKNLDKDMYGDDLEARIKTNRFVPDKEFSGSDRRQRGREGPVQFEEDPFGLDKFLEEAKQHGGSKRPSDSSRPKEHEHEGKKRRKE

UniProt O43172, sequence (O43172 whole entry): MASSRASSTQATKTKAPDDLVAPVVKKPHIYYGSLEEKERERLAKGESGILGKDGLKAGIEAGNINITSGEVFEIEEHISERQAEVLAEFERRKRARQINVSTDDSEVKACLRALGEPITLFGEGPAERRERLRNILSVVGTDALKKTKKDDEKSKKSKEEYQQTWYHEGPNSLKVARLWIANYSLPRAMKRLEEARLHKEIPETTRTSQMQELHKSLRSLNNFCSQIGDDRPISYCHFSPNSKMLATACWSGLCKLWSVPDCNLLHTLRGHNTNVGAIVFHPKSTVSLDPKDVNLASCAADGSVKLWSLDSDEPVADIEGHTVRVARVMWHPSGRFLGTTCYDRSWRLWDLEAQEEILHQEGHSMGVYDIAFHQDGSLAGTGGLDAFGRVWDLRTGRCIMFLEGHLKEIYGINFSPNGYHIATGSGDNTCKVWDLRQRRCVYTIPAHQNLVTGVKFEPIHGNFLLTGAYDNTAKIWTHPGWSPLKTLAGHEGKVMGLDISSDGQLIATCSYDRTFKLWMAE

One may read the pKd as the Kd on a negative log10 scale, so that one unit is a factor of ten. Turning to PPIH (from UniProt O43447), in series [1], the pKd was 5.71.

In the case of PPIL1 (from UniProt Q9Y3C6), in series [2], the pKd is 6.90.
